Where a chain is given by its changes, count along the chain named. Names may count otherwise. One block for each molecule: values may come before it.
What was measured:
[1] = biological target: T1, LRP2 CR89 (Homo sapiens, UniProt P98164); assay: Solid phase binding assay
T1 construct: two CR pairs from LRP2 (CR89, CR3435); made in house; host or cells: E. coli BL21(DE3) CodonPlus-RIPL, pET30(+)a
Procedure: (§1) All expression constructs were sequenced to verify insert sequences and the junctions with the expression vector. Each plasmid was then used to transform BL21(DE3) CodonPlus-RIPL™ cells (Stratagene). Expression of the CR proteins was induced in logarithmic growth-phase cells grown in LB supplemented with 34 μg/mL chloramphenicol, 12.5 μg/mL tetracycline and 15 μg/mL kanamycin by addition of 2 mM IPTG, followed by reduction in incubator temperature to 32° C. and incubation for 4 hours with agitation at […]. Cells were pelleted and resuspended, at 3.5% of the initial culture volume in 10 mM Tris-HCl pH 8, 100 mM NaH2PO4, 8M Urea. Resuspended cells were then frozen in liquid nitrogen, rapidly thawed to 37° C. and sonicated for 10 seconds at an amplitude setting of 60 using a Cole-Parmer CP-130 ultrasonic processor connected to a 3 mm probe. This procedure was repeated three times to effect complete lysis of the cells. Lysates were clarified by spinning twice at 10,000×g in a Sorvall RC-5 centrifuge for 20 minutes at 15° C. Ni-NTA columns (Qiagen Superflow™, 1.5 mL packed bed) were used to purify the CR proteins. Briefly, the resin was equilibrated with two column volumes of lysis buffer. The clarified lysate was then supplemented to 20 mM with imidazole and incubated with the equilibrated Ni-NTA resin overnight at 4° C. The flow-through was discarded. Columns were washed once with one column volume of lysis buffer and then three times with one column volume of TBS pH 8 supplemented with 20 mM imidazole. CR-loaded beads were then removed from the column and CR proteins eluted by incubating at room temperature for 30 minutes with one column volume of the same buffer containing 200 mM imidazole. This step was repeated once and the eluates pooled. Eluted CR protein solutions were then supplemented to 2 M urea, 10 mM CaCl2 and 5 mM DTT. Purified, denatured CR protein solutions were transferred to 3,500 MWCO Slide-A-Lyzer™ (Pierce) cassettes and sequentially dialyzed against a 200-fold excess of 50 mM Tris-HCl pH 8.5, 10 mM CaCl2, 1 mM reduced glutathione, 0.5 mM oxidized glutathione at room temperature overnight and then against TBS supplemented with 5 mM CaCl2 at 4° C. overnight. Protein concentrations were determined by Bradford assay and purity confirmed by SDS-PAGE with Coomassie Brilliant Blue staining.
(§2) Purified, refolded CR protein (1 μg) was bound to Nunc Maxisorp™ 96-well plates in TBS pH 8 supplemented with 5 mM CaCl2 (TBSC) overnight at 4° C. Wells were washed with TBSC and then blocked with TBSC containing 2% bovine serum albumin (BSA). RAP ligands were then incubated with the immobilized receptor at a range of concentrations for 2 hours in the above blocking buffer supplemented with 0.05% Tween-20 at room temperature. Control wells contained no added ligand. As an additional control, to determine whether the absence of calcium affected binding, 10 mM EGTA was included in the incubation medium for some samples. Wells were washed with TBSTC and bound ligands detected with polyclonal anti-RAP (BP41/42, 1:1,000, BioMarin). Excess primary antibody was removed and wells washed before incubation with the secondary antibody, HRP-conjugated goat anti rabbit IgG (Bio-Rad). After washing, TMB substrate solutions (Bio-Rad) were added to detect HRP. Color development was stopped with 1N HCl. Absorption at 450 nm was measured with a microplate spectrophotometer (Molecular Devices). Data were plotted and Kd values derived by non-linear regression with the assumption of single-site binding (GraphPad Prism).

[2] = biological target: T2, LRP1 CR3-5 (Homo sapiens, UniProt Q07954); assay: Solid phase binding assay
T2 construct: made in house; host or cells: E. coli BL21(DE3) CodonPlus-RIPL, pET30(+)a
T2 sequence (Q07954 852-973): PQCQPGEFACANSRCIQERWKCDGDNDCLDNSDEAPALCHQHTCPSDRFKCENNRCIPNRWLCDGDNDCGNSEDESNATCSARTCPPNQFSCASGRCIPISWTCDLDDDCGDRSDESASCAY
Procedure: as §1, §2
From the large number of CR pairs with unique combinations of amino acids at A, C, A′ and C′ within the calcium-binding loop of each CR, CR pairs or triplets were selected to test their binding to RAP d3 (FIG. 2). An additional pair derived from the FDC-8D6 protein was tested, designated 8D6 CR12, having the sequence ([…]) (SEQ ID NO: 91). […]

[3] = biological target: T3, LRP2 CR89 Y1042W R1088D (WVWD) (Homo sapiens, UniProt P98164, R1089D/Y1043W); assay: Solid phase binding assay, LRP2 CR89 mutant
T3 construct: two CR pairs from LRP2 (CR89, CR3435); made in house; host or cells: E. coli BL21(DE3) CodonPlus-RIPL, pET30(+)a
T3 sequence (P98164 1025-1102 Y1043W/R1089D): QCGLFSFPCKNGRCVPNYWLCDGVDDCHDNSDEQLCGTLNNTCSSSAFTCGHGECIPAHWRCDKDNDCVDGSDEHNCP
Source text: (§3) Each amplified fragment was sequentially digested with BamHI and HindIII and then ligated into similarly digested pET30(+)a. The resulting plasmids encode proteins consisting of N-terminal hexahistidine and S-peptides fused to the CR fragment. Ligation reactions were transformed into XL-Blue MRF′ (Stratagene) by electroporation and plasmids isolated from single colonies. Three mutations, […], V1047D and R1088D, were introduced into the LRP2 CR89 expression plasmid both singly and in combination using Stratagene QuikChange II XL reagents and the primers: […]
as §2
(§4) One premise of this work was that amino acids at A, C, A′ and C′ within the calcium-binding loops of a CR pair were key determinants of binding affinity for RAP and would be similarly important for binding of RAP variants. To test this idea, mutant LRP2 CR89 were prepared in which the native, non-canonical residues at these positions were sequentially substituted with the non-native, canonical residues. As defined above, the A, C, A′, C′ string for LRP2 CR89 is YVWR. Mutants included LRP2 CR89 Y1042W (WVWR), LRP2 CR89 V1047D (YDWR), LRP2 CR89 R1088D (YVWD), LRP2 CR89 V1047D R1088D (YDWD), LRP2 CR89 Y1042W V1047D R1088D (WDWD), LRP2 CR89 Y1042W V1047D (WDWR), LRP2 CR89 Y1042W R1088D (WVWD). Binding to both RAP d3 and MegaRAP1 d3 were measured for each LRP2 CR89 mutant by solid-phase assay. Only the YVWD mutant retained significant binding to MegaRAP1 d3, with an approximate 2-fold loss of affinity relative to LRP2 CR89 (FIG. 6 and Table 3). […] The A′ position in LRP2 CR89 is a tryptophan, the canonical residue for wild-type RAP d3 binding, and was not mutated in our studies.

[4] = biological target: T4, LRP2 CR89 Y1042W V1047D R1088D (WDWD) (Homo sapiens, UniProt P98164, R1089D/V1048D/Y1043W); assay: Solid phase binding assay, LRP2 CR89 mutant
T4 construct: two CR pairs from LRP2 (CR89, CR3435); made in house; host or cells: E. coli BL21(DE3) CodonPlus-RIPL, pET30(+)a
T4 sequence (P98164 1022-1105 Y1043W/V1048D/R1089D): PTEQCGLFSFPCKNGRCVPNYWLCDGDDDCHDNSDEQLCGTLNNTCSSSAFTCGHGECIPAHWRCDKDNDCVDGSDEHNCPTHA
Source text: as §3, §2, §4

T1 sequence (P98164 1022-1105 limits assumed): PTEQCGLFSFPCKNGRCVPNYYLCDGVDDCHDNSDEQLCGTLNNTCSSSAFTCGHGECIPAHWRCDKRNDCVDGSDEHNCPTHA

binding to LRP2 CR89 (in words) ([1]; solid-phase assay): no significant affinity
binding at 80 nM (in words) ([2]; 80 nM ligand, FIG. 7): only bound to LRP1 CR3-5
binding (in words) [3]: small increase in binding
binding (in words) [4]: small increase in binding
B1: RAP d3: third domain of human RAP, amino acids 201-319 of mature RAP, bacterially expressed with hexahistidine and S-peptide tags (SEQ ID NO: 92) (protein, listed as Homo sapiens)
chain: LDRLRRVSHQGYSTEAEFEEPRVIDLWDLEQSANLTDKELEAFREELKHFEAKIEKHNHYQKQLEIAHEKLRHAESVGDGERVSRSREKHALLEGRTKELGYTVKKHLQDLSGRISRAR
modifications: hexahistidine and S-peptide tags

binding at 80 nM (in words) ([1]; 80 nM ligand, FIG. 7): bound only to LRP2 CR89
Kd ([1]; solid-phase assay, LRP2 CR89, read-out: apparent dissociation constant (Kd)): 38 nM
binding to LRP1 CR3-5 (in words) ([2]; solid-phase assay): no significant affinity
binding (in words) [3]: failed to bind measurably
binding (in words) [4]: failed to bind measurably
B2: MegaRAP1 d3: d3 of RAP variant selected on LRP2 CR89: S213T, E217K, H249Y, E251K, K256A, K270E (SEQ ID NO: 93) (protein, listed as Homo sapiens)
chain: B1 chain with E51K, K56A, K70D
